In the experiment the target is SARS-CoV-2 spike (S)-trimer protein (SARS-CoV-2) (UniProt P0DTC2). The experiment in a line: SEC.

This note sets out measurements from publication PMC12016715.

For the substance “SARS-CoV-2 spike (S)-trimer protein (from UniProt P0DTC2 16-1209) (domain or fragment)”, the stoichiometry N turned out to be 3.
